Target: SARS-CoV-2 spike receptor-binding domain (SARS-CoV-2-RBD, ~35 kDa) (SARS-CoV-2, UniProt P0DTC2 319-541)
Assay: electrochemical impedance spectroscopy (Langmuir isotherm)

B1: thiol-terminal SARS-CoV-2-RBD aptamer (ssDNA)
DNA: CAGCACCGACCTTGTGCTTTGGGAGTGCTGGTCCAAGGGCGTTAATGGACA
modifications: 5' SH-(CH2)6 thiol
Kd: 0.42 nM
